This data set can be described thus: label from the status in PepcDB records.
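Note: failed if final PepcDB status was selected cloned or expressed and not failed if soluble or beyond.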

Regarding “MIDSLLDEMTLEEQVSVLSGADFWTTVPVERLGIPKIKVTDGPNGARGGGSLVGGVKATCYPVAIALGATWNPALIEAMGVSLAGQVKSKGASVLLAPTVNIHRSGLNGRNFECYSEDPMLTAALAVAYIKGVQSQGVAATIKHFAGNESEIERQTMSSDIDERALREIYLLPFEQAVKKAGVMAVMSSYNRLNGTYTSEHNWLLTDVLREQWGFDGIVMSDWFGSHSTSESVNAGLDLEMPGPTRDRGEKLVQAVRDGTVRPETVREAAGRILTLLERVGAFSSAPDLSEHAEDLPADRALIRKIGAEGAVLLKNDNILPLEKASLKRVAVIGPNAAVARVMGGGSAQINAHYTISPLEGIRAALQGTADVQHSVACGNSRLVKLFSQPVTVEYFKGVNCQGTPVAAEAVQTGEFFWFELPSPDLSLTDFSVRFTGTFTPQEDGPHLLGMTNSGLAKLYVDGELVVDGYTDWKRGENFFGTANDEIRHSVEMKAGRSYAIKVEYLSPPPEEYGIHITAIRFGIERILGEDAMVEAVECAKGADVALLFVGREGQWDTEGLDLPDMRLPGRQEELIERVSAVNPNCIVVLQTGGPVEMPWLEKVKAVLQVWYPGQELGNAVADMLFGDQEPGGRLPQTFPKQLSDNSAITNDPSIYPGMDGHVRYEEGVFVGYRHHDSRTIEPLFPFGFGLNYTSFEWDEPKASASEMTASGVTVSVRVSNTGKRAGSDVVQLYVEAPVSGVERPLKELRAFAKIALEPGESGEVTLEINPRDLSYYDVDAAAFRAPAGDYRLLIGAHAQDIRSAITIVNPQEWLGAVGDRTI”, the protein production result was “failed”. Consider “MIDTHIHSDTRGLEDLELMAMCLDGVITLAHDPFEMKNIKVWEAHVEKLLINELERAKKVGLNLFICVGMHPRAIPPEIDEALDKIKSYINYNSRVVGIGEIGLEKATKEEKEVFIKQLLLAEELNMPAVVHTPRRNKEEVTKIILDEISTLNLKNRDIVIEHCNKETTKWVLDEEFYVGLTIQPGKLTPLEAVEIVKEYKDFADKILLNSDCSSNASDVLAVPRTVLKMKINGIEKDVIYKVAHKNAVNLFGLDI”, for which the protein production result is reported as “failed”. Next, “MIDTSIFQDKTAVYYTLGCKLNFSETSTIGKVLREAGVRTVRKGEKADICVVNTCSVTEVADKKCRQAIHRLVKQHPGAFVVVTGCYAQLKPDAVAKIEGVDVVLGAEQKKDLLQYLGDLRKHESGEAHTSALKDIRSFAPSCSRGDRTRFFLKVQDGCDYYCSYCTIPFARGRSRNGSIASLVEQARQAAAEGGKEIVLTGVNIGDFGKSTGETFFDLVKALDDVECIERYRISSIEPNLLTDEIIEFVSRSKRFMPHFHIPLQSGSDEVLKLMRRRYDTALFASKVKRIKEVMPDAFIGVDVIVGTRGETEEYFEQAYRFIQSLDVTQLHVFSYSERPGTQALKIEHVVSSEEKHRRSRLLLDLSDEKTRAFYARHIGQTMPVLLERSKPGTPMHGFTPNYIRVEVPHDDALDNQVIPVRMGDFNEEGTALSGAFGDK”: “failed”. As to “MIEEERNNYSVFHGLWTLASRELKKWYKAPVILLLSLIQPIFWIGIFGKAMNLGSIFTETTFNIPGLTIPKQVLDQIGLEILKQTFGTTDYFSFLAAGMLSFIVLFTSMQSGMSIVWDRRLGVLDRILTTPVPRGNIIIGKVLSAVIRSLVQATIVLVVAVLLGMTFAPEINPLDFLGVYAALFLMSFGLSSLFLMLALRATSWESQMAIMNLLNLPLLFTSNAFYPVKSMPYWLKPVAYINPLTYSNGVARGMLLGISTNLAIDFLYLGLFAIILSTIGIVLSWKYLSK”, the protein production result is reported as “failed”. For the sequence “MIEESVMLRQHNLRLRKYDYVLGRLFVALPIGGLVVAVLLLFADWRVGRFELAMCLAMYLFTMMGIEVGFHRCFAHRAFKAGTGLQWVLAVAGSMGGHGPLIWWVTTHRRHHRFVDTDQDPHTPNKDLRGPWRNFKSFLYGYVGWTMDTDVKLQEGWQRYGVDLYKNSILFKVHARFALIALLGLLLPTVAGALFHRTAEGALLGLLWGGLVPICLTQHLFWMINAFGHRIGAKPFSGRIVGDSRNCWWLALPTFGQGWHNNHHADPGCATTRKTWWQLDPGAWLIRLFERLGWASAVKWK”, the protein production entry is on record as “failed”. In the case of “MIEFTALDDLSLLRESVSLECKLAQGRDGKGALPDDFWPTYSAMANTDGGIVILGVRERKGQFEVAGIENPDKLRTELFNHLNNRQKVSVNLLRDEDVRAWPVEGKTLLVVEIPRARRQQRPVYLRGNPLGGHTYRRLHEGDRPLPDE”, the protein production entry is on record as “failed”. Consider “MIEGIIEEIRTNGSFLITTHENPDGDAVGSSLALAGYLRRLGKDVTIHFCDPVPDLYAFLPLAEEVTRTVPDRDYDICFVLDVGEFRRAGKQIAECKRIKKFINIDHHLTSDNFGFINYIDPKAAATGILVHRIITGAGDVVGYETALCLYTAIITDTGSFRYSNANPEAFAIAGELVSTGINTWSIAEKLYESQPRERLELLALALSTLTISPRGEYASITVTLDMYNKTGASAELTDGFVNYPRSIRGVEVSVFFREINPGLFKVGFRSKGKIDVSRIAAAFGGGGHHNAAGATMNGSLEGIKATLFSHLESTLLEHHHHHH”, for which the protein production result is recorded as “not failed”. On to “MIEGKTLVVNPFIGGSAKNITDEQYISILKKIKEKMPDLNIIITSYTTDEERTEKLCKDIGKDKIFAFSNGASILNTASIIDRADVYFGASTGPTHIAGALGKKIVAIYPHKKTQSPTRWGVLGNSNVRYIIPDENNPNEDYKLEHHHHHH”, for which the protein production result was “failed”.

For “MIEHIIDIIIVLLAKLGYAGTFFGMLFESACIPIPSEIVLPFGGYLSSSSAPQGHTLNLVLVIISATLGGTVGSILAYTIGAKGGRILVYKYASKLHLSKEKIEKSEAVFDKYGDKIIFLSRLLPIIRTFISLPAGIAKMDFTKFTIYTLVGSAIWSTLLVYAGFVMGKNWESIRSYFHIADYLVAGAIILFIVYRIIVYIKKKTKK”, the protein production result is listed as “failed”.

“MIEKIIDLSVKNKLLTTLVTLLIFLASLWAIKSVRLDALPDLSPAQVVVQITYPNQSPKIVQEQVTYPLVSTFMSIANIDTVRGISSYESGLIYIIFKDGVNLYWARDRVLEQLNRVSNLPKDAKVEIGSDSTSIGWAYQYALSSDSKNLSDLKVLQDFYYRYALLGVDGVSEVASVGGFVKDYEVTLQNDSLIRYNLSLEQVANAIKNSNNDTGGGVILENGFEKIIRSHGYIQSLKDLEEIVVKKEGAIPLKIKDIASVRLTPKPRRGAANLNGDKEVVGGIVMVRYHADTYKVLKAIKEKIATLQASNPDVKITSVYDRSELIEKGIDNLIHTLIEESVIVLVIIAIFLLHFRSALVVIITLPLSVCISFLLMRYFNIEASIMSLGGIAIAIGAMVDAAIVMVENAHKHLQHIDVKDNAQRVNGIIEGVKHVGGAIFFALMIIVVSFLPIFALTGQEEKLFAPLAYTKTFAMLVGALLSITMVPILMVWLIKGRILEESKNPINAFFMKIYGVSLNVVLKFRYAFLIASVLGLGGLYVAYKKLNWEFIPQINEGVVMYMPVTINGVSIDTALEYLKKSNSAIKRLDFVKQVFGKVGRANTSTDAAGLSMIETYIELKPQNEWKEKLSYKEVRDKLEKTLQLKGLTNSWTYPIRGRTDMLLTGIRTPLGIKLYGNDTDKLQELAILMEQQLKTLKESLSVFAERSNNGYYITLDLNDENLARYGINKKAVLDAIKFALGGATLTTMIKGVENYPISLRLEDTERNTIEKLKNLYIKTAYNYMPLRELARIYYDNSPAVLKSEKGLNVNFIYIVPQNGISSDAYRQLAQKALEKIQLPNGYYYEFSGESQYLEEAFKTLQYIVPVSVFIIFILIVFALKNLTNSLLCFFTLPFAFLGGLIFMNLMGFNMSVAALVGFLALLGVASETAIVMIIYLEDAFQKFIKTPLKEQNSTTLKEAIMHGAVLRVRPKLMTFFSILASLIPIMYSHGTGSEIMKSIAAPMLGGMISSVVLTLFIIPTAYFVIKNAGIKSNQT”: the protein production result is recorded as “failed”.

“MIEKKKNRSKLKREAILAAAKKAYQDDGVQNTSMDKLASLAQVSKRTVYNHFSSKEALVMELLSDLWQNSMADIDIQFSENVSIQDQLERLLLAELNVIGAQSYLDLAKVAFGHFFYKPDELQLQVEKMAEQETALSRWLQLMMDTKKLTIEDKHKAGVQLHSLLKGSAFWPQLVGMRAVLSSEEKEQLVTETADMFLSRYLKR”: the protein production entry is recorded as “not failed”. Take “MIELEVVIRTVASFGLLLIAERILGKQTISQMTIFDFIAAITLGAIAAGLAYNTSIKPHNMAISFSIFVLTIFLISFLSIKNRKLRKFFAGDPTVLIQNGKILESNMRKMRYTLDYLNQQLREKEIFNIEEVLFAILETNGQLTVLRKPQFRHVTKQDLMIAVNQEQRLPIELIMDGEIIENNLKQNRLTESWLLEELRKRDIKVKETVYAVLLGNGDIYVDQYKDHISVPMDKE”: the protein production entry is given as “failed”.

In the case of “MIELRNELPGGEVHAAWHLRYAGHDFFVKCDEREMLRGFTAEADQLELLSRSKTVVVPKVWAVGSDRDYSFLVMDYLSPRPLDAHNAFILGQQLARLHQWSDQPQFGLDFDNALSTTPQPNTWQRRWSTFFAEQRIGWQLELAAEKGITFGNIDAIVEHVQQRLASHQPQPSLLHGDLWSANCALGPDGPYIFDPACYWGDRECDLAMLPLHTDQPPQIYDGYQSVSPLPLDFLDRQPIYQLYTLLNRARLFGGQHLATAQKAMDRLLAVLEHHHHHH”, the protein production result is “failed”. Turning to “MIEQPSPKVYDELLSIWEEAVRSTHHFLTEADIQFYKPLIRHEYLAAVRLYIIREDSGTIAAFMGLSNDCIEMLFVRPNAHGHGYGSRLVEFAIRKKRIYKVDVNEQNAAALGFYLHMGFETTGRDALDATGKPFPILHLQIPPIRLRK”, the protein production entry was “failed”. As to “MIETPSLVDQYCHGVLRTELGLGTFEAQLARTEGPPAPGTTLFDTQTGFAVRRWCPPLLGLEPHCPPARYLARRRELGVMEADRRLLRGSGITTYLVDAGLPGDLTGPTEMATAADADTREIVRLELLAEQVADTSGTVESFLANLAEAVHGAAVNAVAFTSVAGVRHGLALAPEPPGPGEVRGAAARWLTGREVGGELSDPVLLRHLLWIAVASGLPLQLHAGLGEPGLRIDRTDPVLLTDFVRTTAGLGTDLVLLHGYPYHRHAAHLAGVFPHVYADSGAALVRTGARAATVLAEILELAPFGKILFSSGAQGLPELHVVAARLFREALGRVLGTWVAEGAWSPGDAQRVAAMIASGNAARVYGLE”, the protein production entry was “failed”. Next, “MIFERIKSEGLAHLSYFVGSGNEAIVIDPRRDCQIYFDIARREGMKIKYIFETHRNEDYVIGSLELKELTDAEIYHGKGVDFKYGIFVSDGQEFNFGSMKLTALHTPGHTDESMSYALTYPESGKAPLMVFTGDALFVGDVGRTDLYGPEEIPRMAANLYESIFNKILPLGDGVILCPAHGAGSLCGGAISKREYSTLGLERIQNPALQRTDKEEFIKFKLEEKLEFPPYFKKMEQYNLQGPPLLKGLPVPELLFPKEFVKEMEKGAMVVDTRMPHSFGGAHIKGSYGIWLKGLPYYAGWVLPYDKPILLVLEEKDQLETAVSYLVRIGYDSIAGFLNGGISSWYMKALPVESLNLISVQSLKDKIEKNEEMVILDVRRDEEWEKGHIEGARHVYVGHLEENLDKVPRNSPIIVYCDSSRRSNIAASILKKKGYDMVYNVLGSMTAWKNAGYKVVKLEHHHHHH”: “not failed”; “MIFRTFIVVLCLIPCFSYGSEAYLNAAEKQFESLLELLPEDEKREWKHRDFEEVMDYSNKLDELKKTAEYIRNQSDSSDVDGILAFSFLADAIQYELDLKTSLVNDLGLHLYRSYEINNVNPVRKAIEAELVALQNASGALQLQSKLTKYFKLQREIAELSKNPPTKMTLEYRPQDNAWDSDPELVKKYVLFDWLSALSKLKEKLYELQKIKDSFASFNYLRLKDPIAFVSLGAQLAILLVAVAGYLISYTEKPSIKVVASLVAASMLLSVFLVFVSSSTIFNLIVQASIPSLFIAYWVYRNSHNKKVQPTADGRG”: “failed”.

For the origin of these results see a protein production outcome set (Wang et al. 2014).
